Reference: the supplement of paper PMC10567573

B1: RSPH3 (parent)
chain: LELQRQREARKRALARKQAQEQLR
B2: OAS1 (parent)
chain: LTVYAWERGSMKTHFNTAQGFRTV

Variants of: B1
Assay: protein stability index of a GFP-peptide fusion (GPS, HEK-293T) (PSI 1-6); higher = more stable
Conditions: c terminus: a fixed tail appended
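Note: lentivirally expressed fusions sorted by FACS into six bins by GFP to DsRed ratio, PSI derived from sequencing read proportions per bin multiplied by bin number.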

Protein stability index of substitutions, site by site:
L23: W 3.69; Y 3.9; V 2.77; S 3.78; T 4.08; R 4.16
R24: G 4.13; Y 3.16; V 4.43; W 2.98; H 3.85; F 3.77; T 3.82; A 3.97; D 4.2; I 3.46; E 4.56; C 4.13; S 3.8; M 3.33; Q 4.54; L 3.18; K 3.72; P 3.86; N 4.23

Variants of: B2
Assay: as above
Conditions: c terminus: a fixed tail appended

Protein stability index of substitutions, site by site:
G9: T 2.55; C 3.73; Y 2.93; S 2.49; D 2.6; I 1.86; L 2.91; Q 1.87; P 3.81; W 2.69; E 2.7; M 2.85; N 2.48; R 2.02; K 1.8; F 3.19; H 1.61
R8: T 3.1; G 2.33; P 4.46; I 2.15; F 2.26; V 2.77; N 2.65; K 1.53; C 1.85; A 2.38; Q 2.56; D 2.89; Y 3.38; W 2.69; S 2.55; H 2.13; M 2.73; L 3.07; E 2.4
N16: Q 2.83; D 1.66; C 2.63; M 3.47; A 3.67; W 3.85; L 2.23; G 3.06; V 3.22; R 1.53; E 2.21; T 2.45; K 3.06; F 3.37; Y 1.95; S 3.5; H 2.69
T2: S 2.21; G 1.25; K 2.87; C 1.6; E 1.91; P 1.93; H 2.11; I 2.45; R 2.04; N 1.84; Q 1.86; M 1.69; F 3.19; D 1.8; Y 2.45; A 2.03; L 2.7; W 2.55; V 2.23
H14: E 2.42; V 3.57; F 2.8; K 2.35; S 2.44; R 3.04; W 2.76; N 1.74; L 2.88; G 1.69; T 2.86; P 2.56; D 2.33; Y 2.75; I 2.29; Q 1.75; M 3.15
T17: R 2.38; D 2.33; M 1.74; P 2.2; Y 2.64; L 2.17; E 1.61; W 2.1; K 2.48; H 2.95; S 3.12; I 3.17; Q 4.87; G 2.67; A 1.69; C 1.78; F 2.25; N 1.72
K12: C 3.27; D 2.29; Q 2.43; G 1.54; R 1.51; P 5.14; V 2.45; L 2.72; H 2.87; W 2.8; A 3.08; F 1.8; M 3.75; S 4.72; I 2.98; E 2.22; T 2.98; Y 2.49; N 2.66
A18: C 1.88
T13: Y 3.56; E 2.06; H 1.83; K 1.51; M 3.37; P 2.06; C 1.13; Q 2.06; F 3.1; A 2.88; V 2.68; W 3.26; S 2.01; G 2.33; L 2.99; N 2.25; I 2.75; R 1.64; D 2.74
W6: M 3.17; K 1.53; P 1.69; F 2.89; R 1.44; T 2.45; H 2.2; V 2.29; L 2.63; Y 1.9; I 2.41; D 1.87; A 1.86; E 2.23; G 1.73; Q 1.66; S 1.59; N 2.06; C 1.61
V3: Q 2.09; K 2.12; N 2.05; T 1.96; L 2.49; P 1.77; Y 2.7; D 2.57; I 3.14; R 2.46; G 1.91; W 2.92; E 2.09; F 3.04; S 2.12; C 2.02; H 2.36; M 2.16; A 2.24
E7: D 2.14; H 2.41; T 3.32; A 3.15; V 3.45; I 2.63; K 2.28; Q 3.28; L 3.71; F 2.85; S 2.76; M 3.48; W 1.98; R 2.05; G 2.18; C 3.64; P 2.46; N 1.99; Y 1.92
L1: T 2.09; R 2.28; F 2.48; W 2.79; N 2; G 2.31; Q 1.79; V 1.5; P 2.14; H 2.13; E 2.17; I 1.71; Y 2.19; M 2.57; K 2.17; D 2.26; A 2.32; C 1.74; S 2.1
A5: M 2.06; Y 3.25; E 2.46; N 2.29; G 2.14; K 1.63; Q 1.54; L 2.8; D 2.59; V 2.34; C 3.68; T 2.75; S 1.91; P 2.19; R 2.9; H 1.69
F15: Q 1.53; N 1.55; W 2.62; I 2.88; E 2.27; P 1.52; S 2.49; Y 2.28; A 2.35; R 2.93; D 2.47; H 2.39; M 2.26; L 2.21; G 1.61; T 1.9; V 2.08; K 2.01; C 1.96
Y4: K 2.16; L 2.55; E 1.97; W 1.19; R 1.77; S 1.83; P 2.31; G 2.76; T 1.59; C 1.38; Q 1.86; H 1.66; I 3.51; M 1.51; D 2.09; N 1.94; A 2.01; F 2.96
S10: M 2.46; G 2.28; Y 3.69; E 3.28; Q 1.99; C 2.82; R 2.08; L 2; F 2.93; D 1.75; P 1.54; V 2.62; N 2.53; I 1.91; A 2.05; H 2.71
M11: S 2.19; N 2.06; E 2.27; V 2.09; P 1.85; L 1.51; H 2.31; K 2.38; G 3.37; R 2.16; Y 3.28; C 3.65; F 2.49; A 1.75; Q 2.14; D 2.21; T 2.09; I 1.97
